Laboratory results as given in patent publication US10377818B2, “Method of treating glioma” (The Board of Trustees of the Leland Stanford Junior …, priority 2015, dated 2019).

B1: NLGN2: Recombinant soluble neuroligin-2 (protein, UniProt Q8NFZ4 15-677, looked up)
extracellular domain: QRGGGGPGGGAPGGPGLGLGSLGEERFPVVNTAYGRVRGVRRELNNEILGPVVQFLGVPYATPPLGARRFQPPEAPASWPGVRNATTLPPACPQNLHGALPAIMLPVWFTDNLEAAATYVQNQSEDCLYLNLYVPTEDGPLTKKRDEATLNPPDTDIRDPGKKPVMLFLHGGSYMEGTGNMFDGSVLAAYGNVIVATLNYRLGVLGFLSTGDQAAKGNYGLLDQIQALRWLSENIAHFGGDPERITIFGSGAGASCVNLLILSHHSEGLFQKAIAQSGTAISSWSVNYQPLKYTRLLAAKVGCDREDSAEAVECLRRKPSRELVDQDVQPARYHIAFGPVVDGDVVPDDPEILMQQGEFLNYDMLIGVNQGEGLKFVEDSAESEDGVSASAFDFTVSNFVDNLYGYPEGKDVLRETIKFMYTDWADRDNGEMRRKTLLALFTDHQWVAPAVATAKLHADYQSPVYFYTFYHHCQAEGRPEWADAAHGDELPYVFGVPMVGATDLFPCNFSKNDVMLSAVVMTYWTNFAKTGDPNQPVPQDTKFIHTKPNRFEEVVWSKFNSKEKQYLHIGLKPRVRDNYRANKVAFWLELVPHLHNLHTELFTTTTRLPPYATRWPPRPPAGAPGTRRPPPPATLPPEPEPEPGPRAYDRFPGDSRDYSTELS
modifications: extracellular domain
B2: brevican: Recombinant candidate protein from proteomic analyses of cortical slice conditioned media (protein, UniProt Q96GW7 23-911, looked up)
Brevican core protein: DVLEGDSSEDRAFRVRIAGDAPLQGVLGGALTIPCHVHYLRPPPSRRAVLGSPRVKWTFLSRGREAEVLVARGVRVKVNEAYRFRVALPAYPASLTDVSLALSELRPNDSGIYRCEVQHGIDDSSDAVEVKVKGVVFLYREGSARYAFSFSGAQEACARIGAHIATPEQLYAAYLGGYEQCDAGWLSDQTVRYPIQTPREACYGDMDGFPGVRNYGVVDPDDLYDVYCYAEDLNGELFLGDPPEKLTLEEARAYCQERGAEIATTGQLYAAWDGGLDHCSPGWLADGSVRYPIVTPSQRCGGGLPGVKTLFLFPNQTGFPNKHSRFNVYCFRDSAQPSAIPEASNPASNPASDGLEAIVTVTETLEELQLPQEATESESRGAIYSIPIMEDGGGGSSTPEDPAEAPRTLLEFETQSMVPPTGFSEEEGKALEEEEKYEDEEEKEEEEEEEEVEDEALWAWPSELSSPGPEASLPTEPAAQEESLSQAPARAVLQPGASPLPDGESEASRPPRVHGPPTETLPTPRERNLASPSPSTLVEAREVGEATGGPELSGVPRGESEETGSSEGAPSLLPATRAPEGTRELEAPSEDNSGRTAPAGTSVQAQPVLPTDSASRGGVAVVPASGDCVPSPCHNGGTCLEEEEGVRCLCLPGYGGDLCDVGLRFCNPGWDAFQGACYKHFSTRRSWEEAETQCRMYGAHLASISTPEEQDFINNRYREYQWIGLNDRTIEGDFLWSDGVPLLYENWNPGQPDSYFLSGENCVVMVWHDQGQWSDVPCNYHLSYTCKMGLVSCGPPPELPLAQVFGRPRLRYEVDTVLRYRCREGLAQRNLPLIRCQENGRWEAPQISCVPRRPARALHPEEDPEGRQGRLLGRWKALLIPPSSPMPGP

System: SU-pcGBM2 cells
Assay: EdU incorporation assay, proliferation index of pHGG cells (SU-pcGBM2)
Format: cell-based, human

Molecule	effect on pHGG cell proliferation (recombinant NLGN2 at 1, 10 or 100 nM for 24 hours)	effect on proliferation index relative to aCSF control (recombinant candidate proteins at 100 nM for 24 hours)
B1	No effect of NLGN2 on pHGG cell proliferation was observed	–
B2	–	did not differ
